From the supplement of paper PMC7125110
± gives the standard error. This sample holds only a part of the variants without activity.

B1: glmS ribozyme (parent)
chain: AUAAAAGCGCCAGAACUACAGAAAUGUAGUUGACGAGGAGGAGGUUUAUCGAAUUUUCGGCGGAUGCCUCCAAA

Assays:
Conditions in all cases: with glucosamine-6-phosphate
glucosamine-6-phosphate [1] = variants of: B1; experiment: self-cleavage kobs at 640 uM GlcN6P; higher = faster cleavage; RNA array
Outline: (§1)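 Tiles bearing barcoded ribozyme variants, transcribed in situ by E. coli RNA polymerase on sequenced MiSeq chips, were imaged over ~14 h at 37 °C using a hybridised Cy3 probe. Glucosamine-6-phosphate was supplied at 40 μM to 10 mM in HEPES/KCl/Mg(OAc)2 buffer. kobs came from one- or two-exponential decay fits to normalised per-tile medians, and weighted Michaelis–Menten fits then provided kcat and KM.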

glucosamine-6-phosphate [2] = variants of: B1; experiment: self-cleavage kobs at 2500 uM GlcN6P; higher = faster cleavage; RNA array
Outline: as §1

glucosamine-6-phosphate [3] = variants of: B1; experiment: self-cleavage kobs at 160 uM GlcN6P; higher = faster cleavage; RNA array
Outline: as §1

glucosamine-6-phosphate [4] = variants of: B1; experiment: self-cleavage kobs at 10000 uM GlcN6P; higher = faster cleavage; RNA array
Outline: as §1

Variant	self-cleavage kobs at 640 uM GlcN6P (glucosamine-6-phosphate [1]) [s⁻¹]	self-cleavage kobs at 2500 uM GlcN6P (glucosamine-6-phosphate [2]) [s⁻¹]	self-cleavage kobs at 160 uM GlcN6P (glucosamine-6-phosphate [3]) [s⁻¹]	self-cleavage kobs at 10000 uM GlcN6P (glucosamine-6-phosphate [4]) [s⁻¹]
C8U G13A U46A G51C G59A	< 1e-05	–	–	–
G7A G43U U49G G63C A64U	< 1e-05	< 1e-05	–	–
A48C G62U	< 1e-05	< 1e-05	< 1e-05	–
C8A C11U G13A C71U	< 1e-05	< 1e-05	–	–
G7U C16A G37U U45G	< 1e-05	–	–	–
G7A G9C A33U G66C	< 1e-05	< 1e-05	–	–
U56A G63C	–	< 1e-05	< 1e-05	–
A6G G40A U54G C67A	< 1e-05	< 1e-05	–	–
U49C U57C G60A G63A	< 1e-05	< 1e-05	< 1e-05	–
G7A C10U G29A U30G	< 1e-05	–	–	–
G9A U30G A39U	< 1e-05	–	–	–
C8U G13U A14U	< 1e-05	–	–	–
A6U G9C A52U C67A C70U	< 1e-05	–	–	–
G38A G40U	< 1e-05	< 1e-05	< 1e-05	< 1e-05
A6G U31G U45A A53G C61A G66C	< 1e-05	–	–	–
A39U C61U G62U	< 1e-05	< 1e-05	< 1e-05	–
A6G U49A	< 1e-05	–	–	< 1e-05
A6G G9A A33C A39U G41U A53U	< 1e-05	–	–	–
A42C G51U A53C C71G	–	–	< 1e-05	–
A6U A33G U54A	< 1e-05	–	–	–

Variant	self-cleavage kobs at 640 uM GlcN6P (glucosamine-6-phosphate [1]) [s⁻¹]	self-cleavage kobs at 2500 uM GlcN6P (glucosamine-6-phosphate [2]) [s⁻¹]	self-cleavage kobs at 160 uM GlcN6P (glucosamine-6-phosphate [3]) [s⁻¹]	self-cleavage kobs at 10000 uM GlcN6P (glucosamine-6-phosphate [4]) [s⁻¹]
A52C A53G G62C	–	–	< 1e-05	< 1e-05
U47A C58A	7.69e-05 ± 1.4e-05	0.00024 ± 2.9e-05	2.53e-05 ± 1.2e-05	–
G37U A42U A53G	–	< 1e-05	< 1e-05	–
G7U G13U A15U C50A G51A G60U C67A C71A	0.000375 ± 0.00012	–	–	–
C8A G9C G29C G35U	< 1e-05	< 1e-05	–	–
G9C A33U C34G U56A	< 1e-05	–	–	–
G41A G60A G63U	< 1e-05	< 1e-05	< 1e-05	< 1e-05
C8U G62A C70U	6.07e-05 ± 2.6e-05	–	–	–
A52U G60A G66C	< 1e-05	–	< 1e-05	–
C8G C10A G38U A52G	< 1e-05	< 1e-05	–	–
G37U C58A	–	–	< 1e-05	< 1e-05
A6C C16G G37C A39G U45G U47A	< 1e-05	< 1e-05	–	–
G9A G44C C68U U69A	< 1e-05	–	–	–
G9C G29A G32A	< 1e-05	< 1e-05	–	–
A6G A42C A52U C68A	< 1e-05	< 1e-05	–	–
G7C U56G C67U	< 1e-05	–	–	–
C8U A12U G37U C61A A64U C67G	0.000544 ± 0.00022	–	–	–
C8A A36U U45C U57A	< 1e-05	–	–	–
G62A U65G	< 1e-05	< 1e-05	< 1e-05	< 1e-05
C8A C50G C58G G62A	0.000111 ± 3.2e-05	0.000345 ± 8.6e-05	–	–

Variant	self-cleavage kobs at 640 uM GlcN6P (glucosamine-6-phosphate [1]) [s⁻¹]	self-cleavage kobs at 2500 uM GlcN6P (glucosamine-6-phosphate [2]) [s⁻¹]	self-cleavage kobs at 160 uM GlcN6P (glucosamine-6-phosphate [3]) [s⁻¹]	self-cleavage kobs at 10000 uM GlcN6P (glucosamine-6-phosphate [4]) [s⁻¹]
C8G U57G C70U	< 1e-05	< 1e-05	–	–
A53G U55A G66U	0.000436 ± 9.4e-05	0.000351 ± 0.00011	0.000163 ± 4.6e-05	–
C50G A64C	–	6.53e-05 ± 1.7e-05	7.93e-05 ± 2.1e-05	2.52e-05 ± 1.2e-05
A6C G44A G51U	< 1e-05	< 1e-05	–	–
G41C U54G C67U	–	–	< 1e-05	–
G7U A15C A39C	< 1e-05	–	–	–
G63A C70G C71G	4.83e-05 ± 1.9e-05	–	5.57e-05 ± 1.4e-05	–
A6G G38A C68G	< 1e-05	–	–	–
C8G C61U C68U	< 1e-05	< 1e-05	–	–
A6U C8U A15U G32C C34A C61G	< 1e-05	–	–	–
A6U C11G A14C G41U	< 1e-05	< 1e-05	–	–
C61U G62U	< 1e-05	–	< 1e-05	< 1e-05
A6U G37C G40A	< 1e-05	< 1e-05	–	–
C8U A14U U57C G59U	< 1e-05	–	–	–
G51U A64U	< 1e-05	< 1e-05	< 1e-05	< 1e-05
G7U G41A U69G	< 1e-05	–	–	–
G51U A52U U65G	< 1e-05	< 1e-05	< 1e-05	–
U57C G63A	< 1e-05	< 1e-05	< 1e-05	< 1e-05
G7A C11G A15C C50A U54C	< 1e-05	< 1e-05	–	–
A42C U45G	< 1e-05	–	< 1e-05	–
